Test results: patent US20260217835
Changes are numbered by the printed parent chain. Numbers in names are those of the source.

T1: IgG1 Fc fragment with CH3 modification E356K/D399K/K409E/K439E (SEQ ID NO: 68)
T1 chain: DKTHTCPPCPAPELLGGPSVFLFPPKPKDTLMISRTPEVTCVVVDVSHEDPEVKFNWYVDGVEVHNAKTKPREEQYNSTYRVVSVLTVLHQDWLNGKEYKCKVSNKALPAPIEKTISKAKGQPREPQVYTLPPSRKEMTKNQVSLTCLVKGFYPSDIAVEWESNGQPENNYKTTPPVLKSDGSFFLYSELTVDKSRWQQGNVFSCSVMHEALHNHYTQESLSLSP

T2: IgG1 Fc fragment with CH3 modification E356K/K392D/D399K/K439E (SEQ ID NO: 71)
T2 chain: T1 chain with K172D, E189K

T3: IgG1 Fc fragment with CH3 modification T350V/L351Y/T366L/K392L/T394W/F405A/Y407V (SEQ ID NO: 77)
T3 chain: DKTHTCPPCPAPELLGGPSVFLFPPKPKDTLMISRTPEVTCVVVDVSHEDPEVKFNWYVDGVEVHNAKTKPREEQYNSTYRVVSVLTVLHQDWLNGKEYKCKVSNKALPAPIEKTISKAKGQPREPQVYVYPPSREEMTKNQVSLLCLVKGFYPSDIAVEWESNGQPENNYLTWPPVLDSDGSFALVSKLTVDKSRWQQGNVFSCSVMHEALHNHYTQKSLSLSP

T4: IgG1 Fc fragment with CH3 modification K392L/T394W/F405A/Y407V (SEQ ID NO: 70)
T4 chain: T3 chain with V130T, Y131L, L146T

B1: full-length IgG heavy chain with CH3 modification Y349C/E357C/K392D/D399K (SEQ ID NO: 51), coexpressed with light chain SEQ ID NO: 61 (protein)
chain 1: QVQLQESGPGLVRPSQTLSLTCTVSGYSITSDHAWSWVRQPPGRGLEWIGYISYSGITTYNPSLKSRVTMLRDTSKNQFSLRLSSVTAADTAVYYCARSLARTTAMDYWGQGSLVTVSSASTKGPSVFPLAPSSKSTSGGTAALGCLVKDYFPEPVTVSWNSGALTSGVHTFPAVLQSSGLYSLSSVVTVPSSSLGTQTYICNVNHKPSNTKVDKRVEPKSCDKTHTCPPCPAPELLGGPSVFLFPPKPKDTLMISRTPEVTCVVVDVSHEDPEVKFNWYVDGVEVHNAKTKPREEQYNSTYRVVSVLTVLHQDWLNGKEYKCKVSNKALPAPIEKTISKAKGQPREPQVCTLPPSRECMTKNQVSLTCLVKGFYPSDIAVEWESNGQPENNYDTTPPVLKSDGSFFLYSKLTVDKSRWQQGNVFSCSVMHEALHNHYTQKSLSLSP
chain 2: not shown
B2: full-length IgG heavy chain with CH3 modification T350V/L351Y/T366L/K392L/T394W/F405A/Y407V (SEQ ID NO: 60), coexpressed with light chain SEQ ID NO: 61 (protein)
chain 1: B1 chain 1 with C351Y, T352V, L353Y, C359E, T368L, D394L, T396W, K401D, F407A, Y409V
chain 2: not shown
B3: full-length IgG heavy chain with CH3 modification E345R/Q347R/K360D/T366V/D399M/Y407A/K409V (SEQ ID NO: 55), coexpressed with light chain SEQ ID NO: 61 (protein)
chain 1: B1 chain 1 with E347R, Q349R, C351Y, C359E, K362D, T368V, D394K, K401M, Y409A, K411V
chain 2: not shown
B4: full-length IgG heavy chain with CH3 modification E345R/K360E/D399M/Y407A/K409V (SEQ ID NO: 58), coexpressed with light chain SEQ ID NO: 61 (protein)
chain 1: B1 chain 1 with E347R, C351Y, C359E, K362E, D394K, K401M, Y409A, K411V
chain 2: not shown
B5: full-length IgG heavy chain with CH3 modification E356K/K392D/D399K/K409D (SEQ ID NO: 56), coexpressed with light chain SEQ ID NO: 61 (protein)
chain 1: B1 chain 1 with C351Y, E358K, C359E, K411D
chain 2: not shown

Target: T1, IgG1 Fc fragment with CH3 modification …
Assay: SEC area ratio of heteromultimer after coexpression of full-length heavy chain, light chain and Fc fragment in Expi293F

B1 and B2 are the same in heterodimer formation ratio (%): 0% for the first, 0% for the second.

B3 and B4 are the same in heterodimer formation ratio (%): 0% for the first, 0% for the second.

In the case of B5, the heterodimer formation ratio (%) is reported as 53%.

The proteins below were run against IgG1 Fc fragment with CH3 modification T394W/F405A (SEQ ID NO: 64) in the same assay as above.

Going from B1 to B2, the heterodimer formation ratio (%) rises from 0% to 6%.

B3 and B4 are the same in heterodimer formation ratio (%): 0% for the first, 0% for the second.

B5 showed a heterodimer formation ratio (%) of 0%.

Target: T2, IgG1 Fc fragment with CH3 modification …
Assay: as above

B1 and B2 are the same in heterodimer formation ratio (%): 0% for the first, 0% for the second.

B3 and B4 are the same in heterodimer formation ratio (%): 0% for the first, 0% for the second.

In the case of B5, the heterodimer formation ratio (%) is reported as 60%.

Target: T3, IgG1 Fc fragment with CH3 modification …
Assay: as above

First: B1
Second: B2
The heterodimer formation ratio (%) of the first is lower: 0% for the first, 51% for the second.

B3 and B4 are the same in heterodimer formation ratio (%): 0% for the first, 0% for the second.

B5 was tested, and the heterodimer formation ratio (%) was 0%.

Target: T4, IgG1 Fc fragment with CH3 modification …
Assay: as above

Going from B1 to B2, the heterodimer formation ratio (%) rises from 0% to 66%.

B3 and B4 are the same in heterodimer formation ratio (%): 0% for the first, 0% for the second.

Protein B5 has a heterodimer formation ratio (%) of 0%.
